Literature values, collected in PMC11409674, “Raffinocyclicin is a novel plasmid-encoded circular bacteriocin produced by Lactococcus raffinolactis with broad-spectrum activity against many gram-positive food pathogens” (Applied and environmental microbiology, 2024).

Legend:
proteases = tested on: proteases; design: method as in 4 sources, ref 33 = [33]; PMID 21948835; doi:10.1128/AEM.06348-11; 33 Masuda Y Ono H Kitagawa H Ito H Mu F Sawa N Zendo T Sonomoto K Identification and characterization of leucocyclicin Q, a novel cyclic bacteriocin produced by Leuconostoc mesenteroides TK41401 Appl ||| ref 27 = [27]; PMID 21057028; doi:10.1128/AEM.01173-10; 27 Borrero J Brede DA Skaugen M Diep DB Herranz C Nes IF Cintas LM Hernández PE Characterization of garvicin ML, a novel circular bacteriocin produced by Lactococcus garvieae DCC43, isolated from mall ||| ref 30 = [30]; PMID 29177092; doi:10.1099/mgen.0.000134; 30 van Heel AJ Montalban-Lopez M Oliveau Q Kuipers OP Genome-guided identification of novel head-to-tail cyclized antimicrobial peptides, exemplified by the discovery of pumilarin Microb Genom 2017 3 ||| ref 29 = [29]; PMID 18552180; doi:10.1128/AEM.00817-08; 29 Martin-Visscher LA van Belkum MJ Garneau-Tsodikova S Whittal RM Zheng J McMullen LM Vederas JC Isolation and characterization of carnocyclin A, a novel circular bacteriocin produced by Carnobacteri; details: cited from earlier work
L. lactis = tested on: L. lactis; design: method as in 7 sources, ref 29 = [29]; PMID 18552180; doi:10.1128/AEM.00817-08; 29 Martin-Visscher LA van Belkum MJ Garneau-Tsodikova S Whittal RM Zheng J McMullen LM Vederas JC Isolation and characterization of carnocyclin A, a novel circular bacteriocin produced by Carnobacteri ||| ref 30 = [30]; PMID 29177092; doi:10.1099/mgen.0.000134; 30 van Heel AJ Montalban-Lopez M Oliveau Q Kuipers OP Genome-guided identification of novel head-to-tail cyclized antimicrobial peptides, exemplified by the discovery of pumilarin Microb Genom 2017 3 ||| ref 31 = [31]; PMID 29030449; doi:10.1128/AEM.01801-17; 31 Borrero J Kelly E O’Connor PM Kelleher P Scully C Cotter PD Mahony J van Sinderen D Plantaricyclin a, a novel circular bacteriocin produced by Lactobacillus plantarum NI326: purification, character ||| ref 32 = [32]; PMID 17464077; doi:10.1099/mic.0.2006/005967-0; 32 Wirawan RE Swanson KM Kleffmann T Jack RW Tagg JR Uberolysin: a novel cyclic bacteriocin produced by Streptococcus uberis Microbiology 2007 153 1619 1630 10.1099/mic.0.2006/005967-0 17464077 ||| ref 27 = [27]; PMID 21057028; doi:10.1128/AEM.01173-10; 27 Borrero J Brede DA Skaugen M Diep DB Herranz C Nes IF Cintas LM Hernández PE Characterization of garvicin ML, a novel circular bacteriocin produced by Lactococcus garvieae DCC43, isolated from mall ||| ...; details: five strains of L. lactis; cited from earlier work

Substance | sensitivity to proteolytic activity (proteases) | inhibition of L. lactis strains tested (L. lactis)
leucocyclicin Q | resistant | 
plantaricyclin A |  | inhibited all five strains
pumilarin | low-sensitivity profile | 
